Laboratory results reported in IntAct's records for PubMed 32296183.

B1: Transmembrane protein 43 (Homo sapiens), Q9BTV4 (parent)
chain: MAANYSSTSTRREHVKVKTSSQPGFLERLSETSGGMFVGLMAFLLSFYLIFTNEGRALKTATSLAEGLSLVVSPDSIHSVAPENEGRLVHIIGALRTSKLLSDPNYGVHLPAVKLRRHVEMYQWVETEESREYTEDGQVKKETRYSYNTEWRSEIINSKNFDREIGHKNPSAMAVESFMATAPFVQIGRFFLSSGLIDKVDNFKSLSLSKLEDPHVDIIRRGDFFYHSENPKYPEVGDLRVSFSYAGLSGDDPDLGPAHVVTVIARQRGDQLVPFSTKSGDTLLLLHHGDFSAEEVFHRELRSNSMKTWGLRAAGWMAMFMGLNLMTRILYTLVDWFPVFRDLVNIGLKAFAFCVATSLTLLTVAAGWLFYRPLWALLIAGLALVPILVARTRVPAKKLE
partner: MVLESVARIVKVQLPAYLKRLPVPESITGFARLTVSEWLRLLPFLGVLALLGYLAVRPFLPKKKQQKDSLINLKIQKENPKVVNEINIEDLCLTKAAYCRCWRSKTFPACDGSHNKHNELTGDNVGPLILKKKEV
B2: Ceroid-lipofuscinosis neuronal protein 6 (Homo sapiens), Q9NWW5 (parent)
chain: MEATRRRQHLGATGGPGAQLGASFLQARHGSVSADEAARTAPFHLDLWFYFTLQNWVLDFGRPIAMLVFPLEWFPLNKPSVGDYFHMAYNVITPFLLLKLIERSPRTLPRSITYVSIIIFIMGASIHLVGDSVNHRLLFSGYQHHLSVRENPIIKNLKPETLIDSFELLYYYDEYLGHCMWYIPFFLILFMYFSGCFTASKAESLIPGPALLLVAPSGLYYWYLVTEGQIFILFIFTFFAMLALVLHQKRKRLFLDSNGLFLFSSFALTLLLVALWVAWLWNDPVLRKKYPGVIYVPEPWAFYTLHVSSRH
partner: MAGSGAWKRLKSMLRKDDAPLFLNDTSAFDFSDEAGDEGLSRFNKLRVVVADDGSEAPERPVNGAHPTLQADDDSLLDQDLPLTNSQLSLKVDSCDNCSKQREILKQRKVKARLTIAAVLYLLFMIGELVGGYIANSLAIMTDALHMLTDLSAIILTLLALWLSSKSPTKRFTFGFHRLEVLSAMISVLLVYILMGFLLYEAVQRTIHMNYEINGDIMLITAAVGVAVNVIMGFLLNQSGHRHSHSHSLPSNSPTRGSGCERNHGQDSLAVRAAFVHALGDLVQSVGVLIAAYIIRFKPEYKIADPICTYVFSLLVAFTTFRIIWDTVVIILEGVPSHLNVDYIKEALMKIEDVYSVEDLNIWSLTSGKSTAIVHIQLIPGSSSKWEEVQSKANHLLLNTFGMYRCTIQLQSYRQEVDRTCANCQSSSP
B3: Ceroid-lipofuscinosis neuronal protein 6 (Homo sapiens), Q9NWW5 (parent)
chain: B2 chain
partner: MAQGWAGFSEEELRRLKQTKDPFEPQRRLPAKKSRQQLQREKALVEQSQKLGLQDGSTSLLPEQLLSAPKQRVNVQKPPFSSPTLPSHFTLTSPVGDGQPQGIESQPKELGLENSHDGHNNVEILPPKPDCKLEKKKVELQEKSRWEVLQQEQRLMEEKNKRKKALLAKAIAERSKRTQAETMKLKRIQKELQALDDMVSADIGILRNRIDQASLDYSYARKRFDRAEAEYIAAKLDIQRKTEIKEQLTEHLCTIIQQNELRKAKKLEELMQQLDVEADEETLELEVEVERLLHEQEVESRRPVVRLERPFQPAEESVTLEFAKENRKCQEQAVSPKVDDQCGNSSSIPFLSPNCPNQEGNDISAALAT

Variants of: B1
Conditions: with cisd2_human CISD2, Q8N5K1

Variant | effect of a mutation on the interaction
MAANYSSTSTRREHVKVKTSSQPGFLEWLSETSGGMFVGLMAFLLSFYLIFTNEGRALKTATSLAEGLSLVVSPDSIHSVAPENEGRLVHIIGALRTSKLLSDPNYGVHLPAVKLRRHVEMYQWVETEESREYTEDGQVKKETRYSYNTEWRSEIINSKNFDREIGHKNPSAMAVESFMATAPFVQIGRFFLSSGLIDKVDNFKSLSLSKLEDPHVDIIRRGDFFYHSENPKYPEVGDLRVSFSYAGLSGDDPDLGPAHVVTVIARQRGDQLVPFSTKSGDTLLLLHHGDFSAEEVFHRELRSNSMKTWGLRAAGWMAMFMGLNLMTRILYTLVDWFPVFRDLVNIGLKAFAFCVATSLTLLTVAAGWLFYRPLWALLIAGLALVPILVARTRVPAKKLE [R28W] | with no effect
MAANYSSTSTRREHVKVKTSSQPGFLERLSETSGGMFVGLMAFLLSFYLIFTNEGRALKTATSLAEGLSLVVSPDSIHSVAPENKGRLVHIIGALRTSKLLSDPNYGVHLPAVKLRRHVEMYQWVETEESREYTEDGQVKKETRYSYNTEWRSEIINSKNFDREIGHKNPSAMAVESFMATAPFVQIGRFFLSSGLIDKVDNFKSLSLSKLEDPHVDIIRRGDFFYHSENPKYPEVGDLRVSFSYAGLSGDDPDLGPAHVVTVIARQRGDQLVPFSTKSGDTLLLLHHGDFSAEEVFHRELRSNSMKTWGLRAAGWMAMFMGLNLMTRILYTLVDWFPVFRDLVNIGLKAFAFCVATSLTLLTVAAGWLFYRPLWALLIAGLALVPILVARTRVPAKKLE [E85K] | disrupting interaction strength
MAANYSSTSTRREHVKVKTSSQPGFLERLSETSGGMFVGLMAFLLSFYLIFTNEGRALKTATSLAEGLSLVVSPDSIHSVAPENEGRLVHVIGALRTSKLLSDPNYGVHLPAVKLRRHVEMYQWVETEESREYTEDGQVKKETRYSYNTEWRSEIINSKNFDREIGHKNPSAMAVESFMATAPFVQIGRFFLSSGLIDKVDNFKSLSLSKLEDPHVDIIRRGDFFYHSENPKYPEVGDLRVSFSYAGLSGDDPDLGPAHVVTVIARQRGDQLVPFSTKSGDTLLLLHHGDFSAEEVFHRELRSNSMKTWGLRAAGWMAMFMGLNLMTRILYTLVDWFPVFRDLVNIGLKAFAFCVATSLTLLTVAAGWLFYRPLWALLIAGLALVPILVARTRVPAKKLE [I91V] | with no effect
MAANYSSTSTRREHVKVKTSSQPGFLERLSETSGGMFVGLMAFLLSFYLIFTNEGRALKTATSLAEGLSLVVSPDSIHSVAPENEGRLVHIIGALRTSKLLSDPNYGVHLPAVKLRRHVEMYQWVETEESREYTEDGQVKKKTRYSYNTEWRSEIINSKNFDREIGHKNPSAMAVESFMATAPFVQIGRFFLSSGLIDKVDNFKSLSLSKLEDPHVDIIRRGDFFYHSENPKYPEVGDLRVSFSYAGLSGDDPDLGPAHVVTVIARQRGDQLVPFSTKSGDTLLLLHHGDFSAEEVFHRELRSNSMKTWGLRAAGWMAMFMGLNLMTRILYTLVDWFPVFRDLVNIGLKAFAFCVATSLTLLTVAAGWLFYRPLWALLIAGLALVPILVARTRVPAKKLE [E142K] | disrupting interaction strength
MAANYSSTSTRREHVKVKTSSQPGFLERLSETSGGMFVGLMAFLLSFYLIFTNEGRALKTATSLAEGLSLVVSPDSIHSVAPENEGRLVHIIGALRTSKLLSDPNYGVHLPAVKLRRHVEMYQWVETEESREYTEDGQVKKETRYSYNTEWRSEIINSKNFDREIGHKNPSAMAVESFMATAPFVQIGRFFLSSGLIDKVDNFKSLSLSKLEDPHVDIIRRGDFFYHSENPKYPEVGDLRVSFSYAGLSGDDPDLGPAHVVTVIARQRGDQLVPFSTKSGDTLLLLHHGDFSAEEVFHRELRSNSMKTWGLRAAGWMAMFMGLNLMTRILYTLVDWFPVFRDLVNIGLKAFAFCVATSLTLLTVAAGWLFHRPLWALLIAGLALVPILVARTRVPAKKLE [Y371H] | with no effect

Variants of: B2
Conditions: with znt4_human SLC30A4, O14863

Variant | effect of a mutation on the interaction
MEATRTRQHLGATGGPGAQLGASFLQARHGSVSADEAARTAPFHLDLWFYFTLQNWVLDFGRPIAMLVFPLEWFPLNKPSVGDYFHMAYNVITPFLLLKLIERSPRTLPRSITYVSIIIFIMGASIHLVGDSVNHRLLFSGYQHHLSVRENPIIKNLKPETLIDSFELLYYYDEYLGHCMWYIPFFLILFMYFSGCFTASKAESLIPGPALLLVAPSGLYYWYLVTEGQIFILFIFTFFAMLALVLHQKRKRLFLDSNGLFLFSSFALTLLLVALWVAWLWNDPVLRKKYPGVIYVPEPWAFYTLHVSSRH [R6T] | with no effect
MEATRRRQHLGATGGPGAQLGASFLQARHGSVSADEAARTAPFHLDFWFYFTLQNWVLDFGRPIAMLVFPLEWFPLNKPSVGDYFHMAYNVITPFLLLKLIERSPRTLPRSITYVSIIIFIMGASIHLVGDSVNHRLLFSGYQHHLSVRENPIIKNLKPETLIDSFELLYYYDEYLGHCMWYIPFFLILFMYFSGCFTASKAESLIPGPALLLVAPSGLYYWYLVTEGQIFILFIFTFFAMLALVLHQKRKRLFLDSNGLFLFSSFALTLLLVALWVAWLWNDPVLRKKYPGVIYVPEPWAFYTLHVSSRH [L47F] | disrupting interaction strength
MEATRRRQHLGATGGPGAQLGASFLQARHGSVSADEAARTAPFHLDLWFYFTLQNWVLDFGRPIAMLVFPLEWFPLNKPSVGDYFHMAYNVITPFLLLKLIERSPRTLPRSITYVSIIIFIMDASIHLVGDSVNHRLLFSGYQHHLSVRENPIIKNLKPETLIDSFELLYYYDEYLGHCMWYIPFFLILFMYFSGCFTASKAESLIPGPALLLVAPSGLYYWYLVTEGQIFILFIFTFFAMLALVLHQKRKRLFLDSNGLFLFSSFALTLLLVALWVAWLWNDPVLRKKYPGVIYVPEPWAFYTLHVSSRH [G123D] | disrupting interaction strength

Variants of: B3
Conditions: with gorab_human GORAB

Variant | effect of a mutation on the interaction
MEATRTRQHLGATGGPGAQLGASFLQARHGSVSADEAARTAPFHLDLWFYFTLQNWVLDFGRPIAMLVFPLEWFPLNKPSVGDYFHMAYNVITPFLLLKLIERSPRTLPRSITYVSIIIFIMGASIHLVGDSVNHRLLFSGYQHHLSVRENPIIKNLKPETLIDSFELLYYYDEYLGHCMWYIPFFLILFMYFSGCFTASKAESLIPGPALLLVAPSGLYYWYLVTEGQIFILFIFTFFAMLALVLHQKRKRLFLDSNGLFLFSSFALTLLLVALWVAWLWNDPVLRKKYPGVIYVPEPWAFYTLHVSSRH [R6T] | with no effect
